Article PMC11870076, “Multiple carbamylation events are required for differential modulation of Cx26 hemichannels and gap junctions by CO2” (The Journal of Physiology, 2025)

Biological target: the molecule itself
Test: cryo-EM structure; GgCx26 in 0.03% DDM, 90 mmHg PCO2 aCSF buffer gassed with 15% CO2 to pH ~7.4, 3.4 mg/ml; reconstructions with D6 and C6 symmetry

B1: chicken connexin 26 (GgCx26) gap junction channel (natural protein)
chain: not shown
notes: DNA encoding GgCx26 lacking a stop codon was amplified from a GgCx26-mCherry construct, forward primer at the start ATG; in the model residues before Val9, 106-124 and after Leu215 are not built; Dodecameric gap junction channel (two docked hexamers); thrombin-cleavable C-terminal His6 tag removed with thrombin before SEC; also called chicken Cx26; Chicken (Gallus gallus) Cx26; source: Sf9 cells …
- stoichiometry N: 12 subunits
